Among the data in publication PMC8273347 are koff values, retold here.

The target in experiment [1] is 30S initiation complex (30S subunit, IF3_(488), IF2, mRNA, GTP, fMet-tRNA^fMet) (UniProt P0A707). The experiment is described as follows: FRET or BRET; stopped-flow chase as a1 (0.05 µM complex, 0.5 µM unlabelled IF1, TAKM7 buffer), with 100 µM Tigecycline (Tig). A general note: In BRET a luciferase serves as donor, and the signal depends on an acceptor being close.
The target in experiment [2] is 30S pre-initiation complex (30S subunit, IF3_(488), IF2, mRNA, GTP) (UniProt P0A707). Described as above.
In experiment [3] the target is 30S–IF3_(488) complex (30S ribosomal subunit with bound Alexa-488-labelled IF3) (UniProt P0A707). Described as above.
Experiment [4] concerns the target 30S initiation complex (30S subunit, IF3_(488), IF2, mRNA, GTP, fMet-tRNA^fMet) (UniProt P0A707). The experiment is described as follows: FRET or BRET; stopped-flow chase as a1 (0.05 µM complex, 0.5 µM unlabelled IF1, TAKM7 buffer), with 100 µM Demeclocycline (Dem).
Experiment [5] has as its target 30S pre-initiation complex (30S subunit, IF3_(488), IF2, mRNA, GTP) (UniProt P0A707). The experiment is described as above.
In experiment [6] the target is 30S–IF3_(488) complex (30S ribosomal subunit with bound Alexa-488-labelled IF3) (UniProt P0A707). The description is as above.
In experiment [7] the target is 30S initiation complex (30S subunit, IF3_(488), IF2, mRNA, GTP, fMet-tRNA^fMet) (UniProt P0A707). Nature of the experiment: FRET or BRET; stopped-flow chase as a1 (0.05 µM complex, 0.5 µM unlabelled IF1, TAKM7 buffer), with 100 µM Oxytetracycline (Otc).
The target in experiment [8] is 30S pre-initiation complex (30S subunit, IF3_(488), IF2, mRNA, GTP) (UniProt P0A707). The experiment is described as above.
For experiment [9], the target named is 30S–IF3_(488) complex (30S ribosomal subunit with bound Alexa-488-labelled IF3) (UniProt P0A707). The experiment is described as above.
The target in experiment [10] is 30S initiation complex (30S subunit, IF3_(488), IF2, mRNA, GTP, fMet-tRNA^fMet) (UniProt P0A707). The description is as above. The source holds these as a separate data set.
For experiment [11] the target is unchanged. Nature of the experiment: FRET or BRET; stopped-flow chase: 0.05 µM 30S complex with IF3_(488) (donor) and IF1_(540Q) (acceptor) mixed with 10-fold excess (0.5 µM) unlabelled IF1, donor fluorescence in time, single exponential fit; TAKM7 buffer (25 mM Tris-HCl pH 7.4, 70 mM NH4Ac, 30 mM KCl, 7 mM MgCl2); no tetracycline.
The target of experiment [12] is 30S pre-initiation complex (30S subunit, IF3_(488), IF2, mRNA, GTP) (UniProt P0A707). Described as above.
The target of experiment [13] is 30S–IF3_(488) complex (30S ribosomal subunit with bound Alexa-488-labelled IF3) (UniProt P0A707). The experiment is described as above.

Usually koff stands for the rate constant with which the complex falls apart. A higher koff goes with fast dissociation.

For “IF1 D4C labelled with Atto-540Q (natural protein)”, the koff in [1] was 0.015 s⁻¹; in experiment [2] it was 0.015 s⁻¹; in experiment [3], 0.021 s⁻¹; in experiment [4] it was 0.012 s⁻¹; in experiment [5], 0.02 s⁻¹; in experiment [6], 0.2 s⁻¹. The koff in experiment [7] stood at 0.03 s⁻¹; in experiment [8], 0.02 s⁻¹; in experiment [9], 0.26 s⁻¹; in experiment [10], 0.3 s⁻¹; in [11] it was 0.02 s⁻¹; in [12], 0.03 s⁻¹. In addition, the koff in experiment [13] turned out to be 0.3 s⁻¹.
